Substitutions are numbered along the chain they refer to.
Experiments:
Assay in all cases: pull-down; GST-yNpl4 (0.5 μM, wild type or mutant) on Glutathione Sepharose 4B beads, 1 h at room temperature with 0.5 μM yUfd1, 3 μM Cdc48 (0.5 μM hexamer) and 1 μg K48 chains in 100 μL 50 mM Tris-HCl pH 7.5, 100 mM NaCl, 10% glycerol, 0.1% Triton X-100; chains detected by anti-Ub immunoblot, proteins by Ponceau S
Conditions in all cases: both partners purified
GST-yNpl4 A494F = target: T1, GST-yNpl4 A494F (Saccharomyces cerevisiae, UniProt P33755 1-580, A494F)
T1 construct: Npl4 of Saccharomyces cerevisiae (yNpl4), full length; source: E. coli Rosetta (DE3) (pGEX-6P1), purified (Glutathione Sepharose FF, Resource Q); not shown: GST, N-terminal, kept
T1 sequence (looked up): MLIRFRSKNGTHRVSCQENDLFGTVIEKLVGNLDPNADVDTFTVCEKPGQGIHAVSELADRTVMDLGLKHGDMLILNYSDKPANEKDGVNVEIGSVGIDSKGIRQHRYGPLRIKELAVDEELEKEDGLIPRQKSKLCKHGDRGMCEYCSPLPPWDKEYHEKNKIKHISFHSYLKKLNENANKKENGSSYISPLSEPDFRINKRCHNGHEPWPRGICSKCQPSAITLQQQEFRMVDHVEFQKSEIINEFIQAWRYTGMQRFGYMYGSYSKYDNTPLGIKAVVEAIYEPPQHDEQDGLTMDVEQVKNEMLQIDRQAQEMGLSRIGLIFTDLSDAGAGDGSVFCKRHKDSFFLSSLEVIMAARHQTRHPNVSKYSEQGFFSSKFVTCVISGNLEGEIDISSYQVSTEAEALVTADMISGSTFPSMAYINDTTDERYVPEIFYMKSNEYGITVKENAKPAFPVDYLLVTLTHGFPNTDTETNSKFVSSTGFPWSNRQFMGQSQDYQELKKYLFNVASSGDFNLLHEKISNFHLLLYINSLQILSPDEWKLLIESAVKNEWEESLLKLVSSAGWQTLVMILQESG

GST-yNpl4 T571A = target: T2, GST-yNpl4 T571A (Saccharomyces cerevisiae, UniProt P33755 1-580, T571A)
T2 construct: Npl4 of Saccharomyces cerevisiae (yNpl4), full length; source: E. coli Rosetta (DE3) (pGEX-6P1), purified (Glutathione Sepharose FF, Resource Q); not shown: GST, N-terminal, kept
T2 sequence (looked up): T1 sequence (looked up) with F494A, T571A

GST-yNpl4 S498R = target: T3, GST-yNpl4 S498R (Saccharomyces cerevisiae, UniProt P33755 1-580, S498R)
T3 construct: Npl4 of Saccharomyces cerevisiae (yNpl4), full length; source: E. coli Rosetta (DE3) (pGEX-6P1), purified (Glutathione Sepharose FF, Resource Q); not shown: GST, N-terminal, kept
T3 sequence (looked up): T1 sequence (looked up) with F494A, S498R

Measured: binding result

B1: yUfd1 (full length, untagged) (natural protein, Saccharomyces cerevisiae, UniProt P53044 1-361, looked up)
chain: MFSGFSSFGGGNGFVNMPQTFEEFFRCYPIAMMNDRIRKDDANFGGKIFLPPSALSKLSMLNIRYPMLFKLTANETGRVTHGGVLEFIAEEGRVYLPQWMMETLGIQPGSLLQISSTDVPLGQFVKLEPQSVDFLDISDPKAVLENVLRNFSTLTVDDVIEISYNGKTFKIKILEVKPESSSKSICVIETDLVTDFAPPVGYVEPDYKALKAQQDKEKKNSFGKGQVLDPSVLGQGSMSTRIDYAGIANSSRNKLSKFVGQGQNISGKAPKAEPKQDIKDMKITFDGEPAKLDLPEGQLFFGFPMVLPKEDEESAAGSKSSEQNFQGQGISLRKSNKRKTKSDHDSSKSKAPKSPEVIEID
notes: Ufd1 of Saccharomyces cerevisiae (yUfd1), full length; codon-optimized synthetic cDNA; removal of GST by HRV3C is surmised; also called untagged Ufd1; source: E. coli Rosetta (DE3) (pGEX-6P1), purified
binds: all assays above
